# Test results published in article PMC8278646 (Microbial Cell Factories, 2021).
# B1: Nanobody (Nan, Camelid), single V-type domain against lysozyme (VHH)
# VHH: DVQLQASGGGSVQAGGSLRLSCAASGYTIGPYCMGWFRQAPGKEREGVAAINMGGGITYYADSVKGRFTISQDNAKNTVYLLMNSLEPEDTAIYYCAADSTIYASYYECGHGLSTGGYGYDSWGQGTQVTVSS
# notes: camelid VhH against lysozyme, 17 kDa; also called VhH; source: S. cerevisiae HA (also LA, MA), secreted with alpha-factor leader; used as culture supernatant and purified from it by cobalt-based immunoprecipitation; not shown: His6, C-terminal, kept
# Key:
# [1] = target: T1, lysozyme from chicken egg white (chicken, UniProt P00698); test: ELISA; antigen coated on MaxiSorp plates (5 ug/mL, carbonate buffer pH 9.6); antibody fragments purified from culture supernatant by cobalt-based immunoprecipitation, serially diluted; detection by anti-6x-His-tag antibody, OD450; room temperature; settings: both partners purified
# T1 construct: lysozyme C from chicken egg white; source: bought: Sigma-Aldrich
# T1 sequence (P00698 19-147): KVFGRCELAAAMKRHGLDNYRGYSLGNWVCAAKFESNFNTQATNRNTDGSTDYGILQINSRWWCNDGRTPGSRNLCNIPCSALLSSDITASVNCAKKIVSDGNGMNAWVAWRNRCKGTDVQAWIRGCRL
# [2] = target: T2, lysozyme from chicken egg white (Lyz, with C-FLAG-tag) (chicken, UniProt P00698); test: pull-down; Nan-His6 from culture supernatant held on cobalt-based Dynabeads and washed; supernatant with Lyz-FLAG (concentrated eight times) added in pull-down buffer (sodium phosphate pH 7.4, NaCl, Tween-20), 4 C, 30 min; imidazole elution; SDS-PAGE and anti-FLAG western blot; settings: one partner purified
# T2 construct: lysozyme from chicken egg white, synthesised codon-optimised gene with an alpha-factor leader; band of 15 kDa; probably the mature lysozyme behind the leader; A spacer EEGEPK may stand at the N-terminus; source: S. cerevisiae, secreted with alpha-factor leader; culture supernatant concentrated eight times; not shown: FLAG, C-terminal, kept
# T2 sequence (P00698 19-147): as above
binder,measurement,setting,value
B1,binding result,[1],binds
same,binding result,[2],binds
